From patent US20210253725A1 (BIONTECH, published 2021)
Where a chain is given by its changes, count along the chain named. Names may count otherwise.

T1: CD27 expressed on the cell surface (HT1080_CD27 cells) (human, UniProt P26842 20-260)
T1 sequence (looked up): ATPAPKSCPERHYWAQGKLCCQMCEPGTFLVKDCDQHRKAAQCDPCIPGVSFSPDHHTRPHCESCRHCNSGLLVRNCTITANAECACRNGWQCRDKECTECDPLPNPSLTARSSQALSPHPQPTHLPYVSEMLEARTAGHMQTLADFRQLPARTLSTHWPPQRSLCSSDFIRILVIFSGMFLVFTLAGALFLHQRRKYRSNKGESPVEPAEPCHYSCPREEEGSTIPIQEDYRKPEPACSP

T2: CD27 protein (His-tagged, Sino Biological Inc. 10039-H08B1) (human, UniProt P26842 20-192)
T2 construct: bought; coated onto ELISA plates; also called human CD27; recombinant protein; not shown: His tag
T2 sequence (looked up): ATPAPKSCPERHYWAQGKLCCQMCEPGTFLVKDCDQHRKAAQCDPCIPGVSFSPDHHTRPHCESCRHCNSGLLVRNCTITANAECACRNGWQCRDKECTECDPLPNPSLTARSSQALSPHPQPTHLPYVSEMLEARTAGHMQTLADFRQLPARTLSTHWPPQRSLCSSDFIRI

B1: P018.S.10.A.E01 (antibody, V domains shown)
VH: QEQLVESGGGLVQPEGSLTLTCTATGIDFSTNYRSCWVRQAPGKGLEWIACIDTDDSDSTYYASWAKGRFTISKTSSTTVTLQMTSLTAADTATYFCTRAYTTSDYAWSFYLWGPGTLVTVSS
VL: DLVMTQTPASVEAAVGGTVTIKCQTSQSISKFLNWYQQTPGQPPKLLIYRASTLESGVPSRFEGSGSGTEFTLTISDLESADAATYYCQCTYGGTSGSVWAFGGGTEVVVK
notes: V regions on human Ig constant parts; also called AB27_175
B2: P018.S.01.A.H02 (antibody, V domains shown)
VH: QSVEESGGRLVTPGTPLTLTCTASGFSLSSYHMQWVRQAPGKGLEWIGIIYAGSGNTWYASWAKGRFTISKTSTTVDLKITSPTTEDTAAYFCARQPGGDASDTQLDLWGQGTLVTVSS
VL: AAVLTQTASPVSAAVGGTVTINCQSSQSVFDHNQLSWFQHKPGQSPKLLIYRASTLASGVPSRFKGSGSGTQFTLTISDVQSDDAATYYCLGGYSSSSDTVFGGGTEVVVK
notes: V regions on human Ig constant parts; also called AB27_25
B3: P018.S.07.A.C02 (antibody, V domains shown)
VH: B2 VH with Q34C, A90T, D100G
VL: B2 VL with A8P, H32N, V80L, Q81E, K111E
notes: V regions on human Ig constant parts; also called AB27_119
B4: P018.S.01.A.C06 (antibody, V domains shown)
VH: QSVEESGGRLVTPGTPLTLTCTVSGIDLNNYVMGWVRQAPGKGLEWIGIINTAGSTYYANWAKGRFTISKTSTTVDLKITSPTTEDTATYFCARDSSYYIGYYFNLWGPGTLVTVSS
VL: QIVMTQTPASVEVAVGGTVTIKCQASQSIGSNLAWYQQKPGQPPKLLIYDASDLESGVPSRFKGSGSGAQFTLTISDLESADAATYYCQQGYSATTNVDNAFGGGTEVVVK
notes: V regions on human Ig constant parts; also called AB27_10
B5: P018.S.05.A.F02 (antibody, V domains shown)
VH: QSVEESGGRLVTPGTPLTLTCTVSGFSLNNYGITWVRQAPGKGLEYIGYINYGGIAYYASWVNGRFTISKTSTTVDLKMTSLTAADTATYFCARGYGYYSAGNLWGQGTLVTVSS
VL: AQVLTQTPSPVSAAVGGTVTINCQASQSVYDNNYLSWYQQKPGQPPKRLIYDASSLASGVPSRFSGSGSGTQFTLTISGVQSDDAATYYCAGEYSCLSDDCIAFGGGTEVVVK
notes: V regions on human Ig constant parts; also called AB27_91
B6: P018.S.03.A.E04 (antibody, V domains shown)
VH: QEQLKESGGGLVTPGGTLTLTCTVSGIDLSSYAISWVRQAPGKGLEWIGYIYVGSTTTWYASWVKGRSTISKTSSTTVDLKMTSLTTEDTATYFCARAYDSGYIGNSFYIFHPWGPGTLVTVSS
VL: DIVMTQTPASVSATVGGTVTIKCQASQTISSRLAWYQQKPGQPPKLLIYSASTLASGVSSRFKGSGSGTEFTLTISDLESADGATYYCAGYGGLGITAFGGGTEVVVK
notes: V regions on human Ig constant parts; also called AB27_52
B7: P018.S.04.A.A05 (antibody, V domains shown)
VH: QSLEESGGRLVTPGTPLTLTCTASGFTISSYEMGWVRQAPGEGLEYIGWIASGGSTFYASWAKGRFTISRTSTTVDLTITDLRPSDTGTYFCARGYVEFKLWGPGTLVTVSS
VL: DIVMTQTPASVSESVGGTVTIKCQASQSIGSYLSWYQQKPGQPPKVLIYRASTLESGVPSRFEGSGSGTQFTLTISDLESADAATYYCQGYHSTSGYVAFGGGTELVVK
notes: V regions on human Ig constant parts; also called AB27_65
B8: P018.S.09.A.C03 (antibody, V domains shown)
VH: QSVEESGGRLVTPGTPLTLTCTVSGFSLSSYGMIWVRQAPGKGLEWIGWISSNDNKYYARWAKGRFTISKTSTTVDLKMTSLTTEDTATYFCVRNGVYNTGNYFDLWGQGTLVTVSS
VL: AQVLTQTPSSVSAAVGGTVTINCQASQSLYNNKNLAWYQQKPGQPPKFLIYTASSLASGVSSRFKGSGSGTQFTLTISDVQSDDAATYYCQGEFDCDSDDCFAFGGGTEVVVK
notes: V regions on human Ig constant parts; also called AB27_148
B9: P018.S.07.A.C06 (antibody, V domains shown)
VH: QSVEESGGRLVTPGTPLTLTCTVSGFSLNHYHMCWVRQAPGKGLEYIGRIDNSGYIVYASWAKGRFTISKTSTTVDLKITSPTTADTATYFCGKYYSGGSYDLWGQGTLVTVSS
VL: AQVLTQTASSVSAAVGGTVTISCQSSQSVWNNNWLAWYQQKPGQPPKLLIYETSKLASGVPSRFKGSGSGTQFTLTISGVQSDDAATYYCQGEFSCSSDDCNAFGGGTEVVVK
notes: V regions on human Ig constant parts; also called AB27_121
B10: P018.S.09.A.D05 (antibody, V domains shown)
VH: QSLEESGGRLVTPGGSLTLTCTVSGIDLSSYAMDWVRQAPGKGLEWIGVIGAGGSTYYASWANGRFTISKTSTTVDLKISSPTTEDTATYFCARDIGGDYSSRYYFSLWGPGTLVTVSS
VL: DIVMTQTPASVEAAVGGTVTIKCQASQSTSTALAWYQQKPGQRPKLLIYDSSKLASGVPSRFSGSGSGTEFTLTISGVQSDDAASYYCQQGYNINNVAFGGGTEVVVK
notes: V regions on human Ig constant parts; also called AB27_152
B11: P018.S.10.A.E06 (antibody, V domains shown)
VH: QSLEESGGRLVTPGTPLTLTCTVSGIDLSDYAMAWVRQAPGKGLEYIGFINIGGISSVANWAIGRFTISKSSTTVDLKITSPTTEDTATYFCAREGYTTGGGGPYYGMDLWGPGTLVTVSS
VL: DIVMTQTPASVSEPMGGTVTIKCQASQSIHSWLSWYQQKPGQPPKRLIYTASTLASGVPSRFKGSGSGTEYTLTISDLESADAATYYCQRNSYSDFNNYVFGGGTEVVVK
notes: V regions on human Ig constant parts; also called AB27_178
B12: P018.S.06.A.D04 (antibody, V domains shown)
VH: QSLEESGGRLVKPDETLTLTCTVSGFDLSSYAVVWVRQAPGKGLEWIGYIYGGSGSTWYASWAKGRFTISKTSSTTVDLKMTSLTTEDTATYFCARAYDSGYIGNSFYAFDPWGPGTLVTVSS
VL: B6 VL with T14A, R32T, T69P, A84G, Y87T, G93T, L94V, I96V, K108R
notes: V regions on human Ig constant parts; also called AB27_103
B13: P018.S.01.A.E04 (antibody, V domains shown)
VH: QEQLKESGGGLVTPGGTLTLTCTASGSDISNYGVSWVRQAPGKGLEWIGFINADGGGTWYASWVKGRFTISRTSTTVELKMTSLTTEHTATYFCATYGGGGGHNLWGPGTLVTVSS
VL: AQVLTQTPSSVSAAVGGTVTINCQSSQSVYDNNALAWYQQKPGQPPKLLLYSASRLASGVPSRFKGSGSGTQFTLTISDLESDDAATYYCAAYYGSGDIFAFGGGTEVVVE
notes: V regions on human Ig constant parts; also called AB27_16
B14: P018.S.07.A.E03 (antibody, V domains shown)
VH: QSLEESGGRLVTPGTPLTLTCTVSGIDLSSYAMGWVRQAPGKGLELIGLIYASDRTHYATWAKGRFTISKSSTTVDLKATSLTTEDTATYFCGRYGRGSGGYYYGMDLWGPGTLVTVSS
VL: DVVMTQTPASVEAAVGGTVTIKCQASQSGDNYLSWYQQKSGQPPKLLIYLASTLASGVPSRFRGSRSGTEYTLTISDLESADAATYYCQNYCAGSGVCVGVAFGGGTEVVVK
notes: V regions on human Ig constant parts; also called AB27_125
B15: P018.S.04.A.B03 (antibody, V domains shown)
VH: QSLEESGGRLVTPGTPLTLTCTASGFSLSSYDMSWVRQAPGKGLEWIGYIWSDGDTDYANWAIGRFTISKTSTTVDLKMTSPTTEDTATYFCARGYTNYDLWGQGTLVTVSS
VL: AAVLTQTPSSVSAAVGGTVTISCQSSQSLYSDPYLSWHQQKPGQPPKRLIYQASTLASGVSSRFKGSGSGTEYTLTISDVQSDDAATYFCQGTYYSDGWYSDFGGGTEVVVK
notes: V regions on human Ig constant parts; also called AB27_67
B16: P018.S.09.A.E03 (antibody, V domains shown)
VH: QSVEESGGRLVTPGTPLTLTCTASGFSLSSYYMGWVRQAPGKGLEWIGFITSGGSGSTYYASWAKGRFTISKTSTTVDLKMTSLTTEDTATYFCARYGDSFYWALDLWGQGTLVTVSS
VL: AQVLTQTPSSVSAAVGGTVTINCQSSQSVLNNDLSWYQQKPGQPPKLLIYAASTLASGVPSRFKGSGSGTQFTLTINVGQSDDAATYYCQGYFIDVNNPFGGGTEVVVK
notes: V regions on human Ig constant parts; also called AB27_154

biological target: T1, CD27 expressed on the cell surface …; test: cell-based or functional assay
Also: test concentration or dose not given here.

Binder | IL-8, cross-linked by F(ab')2 fragment [abs. corr.] | IL-8 [abs. corr.]
B1 | 2.54 | 0.257
B2 | 2.54 | 0.3
B3 | 2.02 | 0.735
B4 | 1.79 | 0.325
B5 | 1.91 | 0.526
B6 | 1.19 | 0.2
B7 | 2.24 | 1.67
B8 | 2.25 | 0.464
B9 | 1.04 | 0.408
B10 | 2.11 | 0.187
B11 | 2.06 | 0.262
B12 | 1.06 | 0.444
B13 | 1.15 | 0.264
B14 | 1.51 | 0.123
B15 | 1.97 | 0.394
B16 | 1.54 | 0.099

biological target: T2, CD27 protein (His-tagged, Sino …); test: ELISA on coated His-tagged CD27

Binder | ELISA [abs. corr.]
B1 | 3.3
B2 | 3.3
B3 | 3.13
B4 | 3.3
B5 | 3.29
B6 | 3.29
B7 | 3.29
B8 | 3.53
B9 | 3.29
B10 | 3.28
B11 | 3.28
B12 | 3.28
B13 | 3.28
B14 | 3.28
B15 | 3.28
B16 | 3.27

biological target: T1, CD27 expressed on the cell surface …; test: cellular binding assay, HT1080_CD27 cells

Binder | Cellular binding assay [RFU]
B1 | 227
B2 | 317
B3 | 380
B4 | 369
B5 | 472
B6 | 356
B7 | 206
B8 | 319
B9 | 336
B10 | 400
B11 | 215
B12 | 394
B13 | 295
B14 | 227
B15 | 338
B16 | 334
